Data on 4 molecules can be found in paper PMC5121451, “NADP-Dependent Aldehyde Dehydrogenase from Archaeon Pyrobaculum sp.1860: Structural and Functional Features” (Archaea, 2016).

For orientation: Kd means the free concentration of one partner at which half of the binding sites on the other are occupied at equilibrium, for simple one-to-one binding. The stoichiometry N is a count of units in the complex or per binding partner. In general, Km refers to the substrate concentration at which the rate is half of its maximum. As a reminder, the kcat is the maximal rate divided by the concentration of active sites. What is called kcat/Km is the turnover number divided by the Michaelis constant.

Data set [1] concerns the target T1, AlDHPyr1147 (Pyrobaculum ferrireducens, UniProt G7VCG0).
T1 construct: gene P186_1147; homotetramer
T1 sequence (G7VCG0 1-491): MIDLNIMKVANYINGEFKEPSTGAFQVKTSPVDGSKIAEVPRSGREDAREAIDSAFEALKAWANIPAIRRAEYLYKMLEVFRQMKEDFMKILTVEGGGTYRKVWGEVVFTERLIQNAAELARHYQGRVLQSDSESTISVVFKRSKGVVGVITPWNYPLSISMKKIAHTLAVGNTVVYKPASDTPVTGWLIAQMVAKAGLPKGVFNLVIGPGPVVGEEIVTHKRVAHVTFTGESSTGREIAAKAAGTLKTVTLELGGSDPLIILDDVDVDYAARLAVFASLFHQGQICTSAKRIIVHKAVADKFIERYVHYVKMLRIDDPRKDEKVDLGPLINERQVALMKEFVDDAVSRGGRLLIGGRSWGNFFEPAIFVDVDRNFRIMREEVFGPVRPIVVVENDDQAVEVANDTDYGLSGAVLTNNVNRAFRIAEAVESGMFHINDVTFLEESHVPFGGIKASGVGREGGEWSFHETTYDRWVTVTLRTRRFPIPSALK
Put plainly: spectrophotometric NADPH formation at […] nm. The format is biochemical. The note with it: 0.084 μM enzyme, 0.3 mM NADP+, 9 mM isobutyraldehyde, pH 8.8, 60 °C.

In data set [2] the target is T1, AlDHPyr1147. Put plainly: spectrofluorimetric titration of apo form. The data set is classed as binding. From the text: spectrofluorimetric titration of apo form on AlDHPyr1147 | spectrofluorimetric titration of the apo form of AlDHPyr1147 with NADP+
The target of data set [3] is NADP-dependent aldehyde dehydrogenase AlDHPyr1147 from archaeon Pyrobaculum sp.1860 (Pyrobaculum sp.1860). Description: SEC; gel filtration of the apo form (coenzyme removed by heating at 85°C for 10-15 min), at room temperature. A general note: In gel filtration, larger molecules generally elute earlier.
For data set [4] the target is unchanged. Description: SEC; gel filtration of AlDHPyr1147 as isolated (with bound coenzyme); analytical column 10/300 GL, 50 mM sodium pyrophosphate pH 8.8, 100 mM NaCl, 22°C.
For data set [5] the target is unchanged. Put plainly: crystal structure; apo form, three binary complexes with coenzyme (Holo-1, Holo-2, Holo-3) and ternary complex with NADP+ and isobutyraldehyde; space group P2(1)2(1)2, eight subunits (two tetramers) per asymmetric unit.
Substrate in data set [6]: CC(C)C=O
Put plainly: purified protein. The note with it: 0.3 mM NADP+, 50 mM sodium pyrophosphate pH 8.8, 100 mM NaCl, 60 °C.

Substrate in data set [7]: O=C[C@H](O)CO
Description: purified protein. The conditions noted are these: 0.3 mM NADP+, 50 mM sodium pyrophosphate pH 8.8, 100 mM NaCl, 60 °C.

Substrate in data set [8]: CCC=O
Put plainly: purified protein. The format is biochemical, Pyrobaculum ferrireducens. The note with it: 0.3 mM NADP+, 50 mM sodium pyrophosphate pH 8.8, 100 mM NaCl, 60 °C.

Substrate in data set [9]: NC(=O)c1ccc[n+]([C@@H]2O[C@H](COP(=O)(O)OP(=O)(O)OC[C@H]3O[C@@H](n4cnc5c(N)ncnc54)[C@H](OP(=O)(O)O)[C@@H]3O)[C@@H](O)[C@H]2O)c1
Put plainly: purified protein. The note with it: 60 °C, isobutyraldehyde oxidation, standard assay, 50 mM sodium pyrophosphate pH 8.8, 100 mM NaCl, varied: cofactor. The format is biochemical, Pyrobaculum ferrireducens.

`NC(=O)C1=CN([C@@H]2O[C@H](COP(=O)(O)OP(=O)(O)OC[C@H]3O[C@@H](n4cnc5c(N)ncnc54)[C@H](OP(=O)(O)O)[C@@H]3O)[C@@H](O)[C@H]2O)C=CC1` [NADPH]: at AlDHPyr1147 [1], the “% decrease in activity at 0.08 mM” value is reported as 20%.

For the molecule `NC(=O)c1ccc[n+]([C@@H]2O[C@H](COP(=O)(O)OP(=O)(O)OC[C@H]3O[C@@H](n4cnc5c(N)ncnc54)[C@H](OP(=O)(O)O)[C@@H]3O)[C@@H](O)[C@H]2O)c1` [NADP+], at AlDHPyr1147 [2], the Kd was found to be 600 ± 80 nM.

Consider “NADP-dependent aldehyde dehydrogenase AlDHPyr1147 from archaeon Pyrobaculum sp.1860 (enzyme)”, for which the stoichiometry N in [3], in data set [4] and in data set [5] was 4 in each case.

B1: AlDHPyr1147 (Pyrobaculum ferrireducens) (protein)
chain: T1 sequence (G7VCG0 1-491)
notes: homotetramer
Regarding B1, the Km in the data set “purified protein [6]” came out at 0.020 ± 0.003 M; in the data set “purified protein [7]” it was 0.015 ± 0.006 M; in the data set “purified protein [8]”, 0.021 ± 0.0025 M; in “purified protein [9]”, 20.9 ± 0.1 µM. Further, the catalytic constant (kcat) in the data set “purified protein [6]” came out at 4.1 s⁻¹; in the data set “purified protein [7]” it was 1.2 s⁻¹; in the data set “purified protein [8]”, 2.9 ± 0.16 s⁻¹. The specificity constant (kcat/Km) in the data set “purified protein [6]” stood at 200 M⁻¹ s⁻¹; in “purified protein [7]”, 80 M⁻¹ s⁻¹; in “purified protein [8]” it was 140 ± 30 M⁻¹ s⁻¹.
